Laboratory results from the supplement of paper PMC12042874.
± gives the uncertainty stated by the source.

Experiment: amyloid nucleation score (Sup35N fusion, yeast selection) (log enrichment); library NNK3; higher = more nucleation; inactive = no reads after selection
In short: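 Three technical output replicates were used for random libraries. Psi-negative yeast expressing peptides of 20 random codons fused to Sup35N were induced with 100 μM copper sulfate for 24 hours and grown 7 days at 30°C on medium lacking adenine and uracil, and input and output plasmid inserts were Illumina-sequenced, excluding sequences with under 100 input reads. The nucleation score is the DiMSum log enrichment of output over input reads, centred on the mode score of non-aggregating sequences.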

Substance | amyloid nucleation score
FDGFGMDNIWKTFRNPHLMG | inactive
FDLWNIILVYIPVNACC | 0.735 ± 0.11
FDNKFKHSYYDTLAA | inactive
FDNVISILPPYFTSFSG | inactive
FDRAFYNHWFSCGFPEGWHT | 0.501 ± 0.17
FDRDWDMFFVRIVSQCGMLW | inactive
FDTFTMTEDSNPEKSECGLK | inactive
FDVELALWC | inactive
FEFKSIGNRLGSYTQASWFA | inactive
FELPMHTGV | inactive
FELRGTLGG | 0.026 ± 0.37
FELYLQLN | 0.478 ± 0.38
FEQNVGGLYWNKWSWGNLMR | inactive
FFCSGS | inactive
FFETRKYCGKEWFSGMLDMQ | inactive
FFLAASPISRNWWSSSLGHS | inactive
FFLIDYIYWVGIFNYSLILV | inactive
FFLYAVLLFTLLPSVLASGN | inactive
FFPKWFCMTLLINDVGNHDM | 0.921 ± 0.25
FFRFRKCAM | inactive
FFRSQKWKSAYMLDNGHSNS | inactive
FFSSPFMFPASGATVPQRFQ | inactive
FFTSTLLSRPNVPNIYSISR | inactive

Substance | amyloid nucleation score
FFVYHTILRLPNGAGLRCGP | inactive
FGCRSNDNQ | inactive
FGEMRFCFCAG | inactive
FGLNSCTSYKYQLSMSGFST | -0.491 ± 0.66
FGLTTRRRPRNVW | inactive
FGNFPSCE | inactive
FGRLTV | inactive
FGSCSEVFSYVAYLRGINDF | inactive
FGSLRCFGWLAWSICVNMYY | inactive
FGTPMVNVCMPS | inactive
FGVFGEIDIYCGW | inactive
FGVSSP | inactive
FGWAWPFFTKVHHTSTV | inactive
FGWVFLYDKLIPVKPFELYF | inactive
FGYNYLCTFSFIISMVHVRF | inactive
FHIRHEGMLFQWGHEALAVK | inactive
FHTPRILYTMNS | inactive
FIFHNHVFFDLSNMFRYYVY | 1.92 ± 0.087
FIIDVLTMASTLGCSVQN | inactive
FIIIVDYSFMPGSRVCMFSW | inactive
FIPGAMVRYQGRILLRSDAG | inactive
FISLPWYCQLVMVRDTSIIK | inactive
FISLVPLLSLYRPWVKK | 0.836 ± 0.18

Substance | amyloid nucleation score
FITFHENDAVELEG | inactive
FIVVVLLCFG | inactive
FIWAREFSVLRSHRRWPTEN | inactive
FKAMTFAYGYLTVGLSVVGV | inactive
FKASSGWLDLWD | inactive
FKAVQN | inactive
FKFVQDAHQNLGVIRSYRRS | inactive
FKRYY | inactive
FKSCLRTC | inactive
FKTCLGPQSTLVKGEVESHT | inactive
FKWDGPESQFGPSLMRINGA | 1.16 ± 0.19
FLAFSMEYCYVPHFWKVSLS | 0.311 ± 0.25
FLCLMTTKTKCNF | inactive
FLCMMTVVYQFVWMMMQGAV | inactive
FLDEFLWSCGIGFLRFIKDV | inactive
FLEWEGFRVCIENHMELLRF | inactive
FLFSWEKFVCLCCILY | 0.32 ± 0.49
FLGSLDFVSIKCQITHVRTS | inactive
FLHILGHVNLFTSLREDLSL | inactive
FLLDMGVNALSW | inactive
FLLKEWLK | -0.626 ± 0.9
FLLNLMIHLFYLVLKSRNQN | inactive
FLMHSKVTSCGVWSLYFADV | 1.44 ± 0.15

Substance | amyloid nucleation score
FLMWVSR | 1.08 ± 0.12
FLPDKGYTWKGTLWRWESNN | inactive
FLPRFGNHLTIRQKVRRTSG | inactive
FLSDYGSC | inactive
FLSLIKM | 0.39 ± 0.2
FLSSVSLGDAHSWTFSR | inactive
FMHSLTGNSGWGKGYRKSHV | 1.04 ± 0.19
FMPMFLRICCTMMLMWLFAC | inactive
FMSRMRKWFGCSNTHSSGTR | 1.77 ± 0.078
FNERDWCNSSGSSHVLWSSM | inactive
FNGSTCCVSSV | inactive
FNLFRNLIMGNCSALMMDQP | inactive
FNLSVINSRGQLECVLNPVK | inactive
FNPKSWKVTKLYFKMYNRLD | inactive
FNSILIVSLHLFSGFDSMR | 1.86 ± 0.093
FNSPSWTYDRLHFPAEQQAL | inactive
FNTFVPRKYH | inactive
FNVANIRSRFFHFTYSRKVS | inactive
FNVPS | 0.673 ± 0.42
FNVRRHHYYGMCPLLISRVR | inactive
FNVTGFSIIGKFIHDWFFLL | inactive
FNVTWKRLRIGRVGMKQKLS | 0.336 ± 0.77
FNWCWPISARAGELNLECWS | inactive

Substance | amyloid nucleation score
FNWFLRWFNPVCKDALWVEC | inactive
FNWMPMGEKSAWAVRVRSAC | inactive
FNWTKS | inactive
FPDLVVYSS | inactive
FPHGVHPYS | inactive
FPPCTLSKLGSGYHLSNESS | inactive
FPSIYLMSD | inactive
FPWSSRATRSGEVTV | inactive
FQYRLTVEGMSWWTGGW | inactive
FRFFFRKSQFYNRSLDNLVR | inactive
FRHPIYCLDLSFSYRMKARG | 0.052 ± 0.28
FRKTRIALFLPLTLDF | inactive
FRMASS | inactive
FRQYHMRRVRLHGRRDVYGQ | inactive
FRYAMSYVGGMGSSINALIW | inactive
FRYQDNDLLAHAA | -0.474 ± 1
FRYVWFCYCMNVERVENVRL | inactive
FSALWTRHKWNFPRMTTFAR | inactive
FSAPVLSTLTASLLELKRSG | inactive
FSDMCGRSFINSSWGGSAGV | inactive
FSEIVDYRGGIYGSYLNESM | inactive
FSFMLSDTGLSVFSSVYDEA | inactive
FSLSCPLSDPNVACTY | inactive

Substance | amyloid nucleation score
FSSLLTSDWRASCLGPYVNM | inactive
FSYVCFGYV | 0.337 ± 0.14
FTMSYYKYLSHGRMRRGT | inactive
FTNKNCFIGAVTRCEVRVWG | inactive
FTPYICVVQLLCYCMILRIY | inactive
FTRAAREGFFDLY | -0.04 ± 0.66
FTSEAPIKVQHWVYTSLPSV | inactive
FTSMFVLIVILSQMLSLQFR | inactive
FTVGILFGNLHLEFGVKVND | 1.6 ± 0.071
FTWLSMYYCLRANERK | 1.33 ± 0.15
FVDMIMKEDKFVLGQNFLRG | inactive
FVDWFLVGCRMVMLDRVLAS | inactive
FVFIQSHYQNMRFGKF | inactive
FVFRHYSRPDIFQDGKKSAN | 1.08 ± 0.15
FVGTCGMMSALFLHSSPSFV | inactive
FVHHYIWRVNL | 0.712 ± 0.36
FVHQRYRAQIIRLLPTSWGC | inactive
FVLMPSSFYNYWTTSEDFRS | inactive
FVLVN | inactive
FVLVWFLRLFDL | inactive
FVQDFSTFTAGWCL | inactive
FVRGCSRNSTRDCFYK | inactive
FVRSQSCS | inactive

Substance | amyloid nucleation score
FVSMRIYGGLRRWHHEYLVV | inactive
FVTKRCFDMLF | inactive
FVWMLRWMGRDD | 0.816 ± 0.24
FVYLSSKYIMSQMFKGKQMY | inactive
FWDTKFEFFQLHRVWIPLLV | inactive
FWFLYSSRAQRRRRHWI | inactive
FWGLSAMSLEVRGWRMGGEL | 0.196 ± 0.54
FWLHLVPYRFPIVGLCLRG | inactive
FWMCVSVSARWAPTSLGFGS | inactive
FWQSIYDGMGSVIFHHGFTQ | 0.434 ± 0.14
FWRSGNFYVNTVVLCASSRE | 2.03 ± 0.099
FWYSYQ | inactive
FYFKR | inactive
FYFMPNFV | inactive
FYFNYFIRMCNITCDI | 2.73 ± 0.05
FYHVTGLFT | inactive
FYIFNWGFFGIKWYLIWNEI | inactive
FYLCKRMNGSWNTLISV | inactive
FYRCLLNH | inactive
FYSECCILMGFFVGQNHSVW | 1.61 ± 0.094
FYSWDIHGCIVHSIYV | inactive
FYVNINFSELVSVDTISSFI | 0.208 ± 0.31
